According to the supplement of paper PMC10567573:

B1: TIA1 (parent)
chain: TYECRCIGEEKEMWNFGEKYARF

Variants of: B1
Test: protein stability index of a GFP-peptide fusion (GPS, HEK-293T) (PSI 1-6); higher = more stable
Details: c terminus: native
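Also: lentivirally expressed fusions sorted by FACS into six bins by GFP to DsRed ratio, PSI derived from sequencing read proportions per bin multiplied by bin number.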

| Variant | protein stability index |
| --- | --- |
| TWECRCIGEEKEMWNFGEKYARF [Y2W] | 4.98 |
| TYECRCIPEEKEMWNFGEKYARF [G8P] | 2.14 |
| TYECRCIFEEKEMWNFGEKYARF [G8F] | 2.01 |
| TYECRCISEEKEMWNFGEKYARF [G8S] | 1.98 |
| TYECRCIAEEKEMWNFGEKYARF [G8A] | 2.54 |
| TYECRCICEEKEMWNFGEKYARF [G8C] | 1.6 |
| TYECRCIYEEKEMWNFGEKYARF [G8Y] | 2.37 |
| TYECRCIIEEKEMWNFGEKYARF [G8I] | 2.04 |
| TYECRCIHEEKEMWNFGEKYARF [G8H] | 1.46 |
| TYECRCITEEKEMWNFGEKYARF [G8T] | 2.47 |
| TYECRCIDEEKEMWNFGEKYARF [G8D] | 1.58 |
| TYECRCIREEKEMWNFGEKYARF [G8R] | 3.32 |
| TYECRCINEEKEMWNFGEKYARF [G8N] | 2.28 |
| TYECRCIVEEKEMWNFGEKYARF [G8V] | 2.65 |
| TYECRCIKEEKEMWNFGEKYARF [G8K] | 2.18 |
| TYECREIGEEKEMWNFGEKYARF [C6E] | 4.37 |
| TYECRRIGEEKEMWNFGEKYARF [C6R] | 3.38 |
| TYECRLIGEEKEMWNFGEKYARF [C6L] | 1.56 |
| TYECRMIGEEKEMWNFGEKYARF [C6M] | 1.84 |
| TYECRWIGEEKEMWNFGEKYARF [C6W] | 1.53 |
| TYECRKIGEEKEMWNFGEKYARF [C6K] | 3.64 |
| TYECRDIGEEKEMWNFGEKYARF [C6D] | 4.2 |
| TYECRPIGEEKEMWNFGEKYARF [C6P] | 3.72 |
| TYECRGIGEEKEMWNFGEKYARF [C6G] | 3.94 |
| TYECRNIGEEKEMWNFGEKYARF [C6N] | 3.44 |

| Variant | protein stability index |
| --- | --- |
| TYECRSIGEEKEMWNFGEKYARF [C6S] | 3.8 |
| TYECRFIGEEKEMWNFGEKYARF [C6F] | 3.08 |
| TYECRTIGEEKEMWNFGEKYARF [C6T] | 3.1 |
| TYECRHIGEEKEMWNFGEKYARF [C6H] | 3.75 |
| TYECRIIGEEKEMWNFGEKYARF [C6I] | 2.89 |
| TYECRAIGEEKEMWNFGEKYARF [C6A] | 2.92 |
| TYECRQIGEEKEMWNFGEKYARF [C6Q] | 3.9 |
| TYECRYIGEEKEMWNFGEKYARF [C6Y] | 2.14 |
| TYECRCIGVEKEMWNFGEKYARF [E9V] | 1.92 |
| TYECRCIGHEKEMWNFGEKYARF [E9H] | 1.74 |
| TYECRCIGGEKEMWNFGEKYARF [E9G] | 2.09 |
| TYECRCIGCEKEMWNFGEKYARF [E9C] | 2.1 |
| TYECRCIGTEKEMWNFGEKYARF [E9T] | 1.61 |
| TYECRCIGAEKEMWNFGEKYARF [E9A] | 1.85 |
| TYECRCIGNEKEMWNFGEKYARF [E9N] | 2.29 |
| TYECRCIGYEKEMWNFGEKYARF [E9Y] | 1.85 |
| TYECRCIGWEKEMWNFGEKYARF [E9W] | 1.74 |
| TYECRCIGFEKEMWNFGEKYARF [E9F] | 1.81 |
| TYECRCIGSEKEMWNFGEKYARF [E9S] | 1.84 |
| TYECRCIGPEKEMWNFGEKYARF [E9P] | 1.82 |
| TYECRCIGMEKEMWNFGEKYARF [E9M] | 1.33 |
| TYECRCIGDEKEMWNFGEKYARF [E9D] | 2.28 |
| TYECRCIGLEKEMWNFGEKYARF [E9L] | 3.02 |
| TYECRCIGIEKEMWNFGEKYARF [E9I] | 1.89 |
| TYECRCIGKEKEMWNFGEKYARF [E9K] | 2.49 |

| Variant | protein stability index |
| --- | --- |
| TYECRCIGQEKEMWNFGEKYARF [E9Q] | 2.46 |
| TYECRCIGREKEMWNFGEKYARF [E9R] | 1.88 |
| TYECRCIGECKEMWNFGEKYARF [E10C] | 2.25 |
| TYECRCIGEAKEMWNFGEKYARF [E10A] | 2.85 |
| TYECRCIGEIKEMWNFGEKYARF [E10I] | 2.56 |
| TYECRCIGETKEMWNFGEKYARF [E10T] | 1.43 |
| TYECRCIGEPKEMWNFGEKYARF [E10P] | 2.12 |
| TYECRCIGEQKEMWNFGEKYARF [E10Q] | 1.71 |
| TYECRCIGEHKEMWNFGEKYARF [E10H] | 2.49 |
| TYECRCIGELKEMWNFGEKYARF [E10L] | 2.25 |
| TYECRCIGEVKEMWNFGEKYARF [E10V] | 1.58 |
| TYECRCIGEWKEMWNFGEKYARF [E10W] | 2.52 |
| TYECRCIGESKEMWNFGEKYARF [E10S] | 2.23 |
| TYECRCIGENKEMWNFGEKYARF [E10N] | 1.83 |
| TYECRCIGEDKEMWNFGEKYARF [E10D] | 1.99 |
| TYECRCIGEGKEMWNFGEKYARF [E10G] | 1.86 |
| TYEHRCIGEEKEMWNFGEKYARF [C4H] | 3.33 |
| TYETRCIGEEKEMWNFGEKYARF [C4T] | 2.31 |
| TYEWRCIGEEKEMWNFGEKYARF [C4W] | 1.91 |
| TYEQRCIGEEKEMWNFGEKYARF [C4Q] | 1.67 |
| TYEVRCIGEEKEMWNFGEKYARF [C4V] | 1.88 |
| TYEIRCIGEEKEMWNFGEKYARF [C4I] | 2.31 |
| TYEPRCIGEEKEMWNFGEKYARF [C4P] | 3.81 |
| TYEKRCIGEEKEMWNFGEKYARF [C4K] | 3.16 |
| TYEERCIGEEKEMWNFGEKYARF [C4E] | 2.2 |

| Variant | protein stability index |
| --- | --- |
| TYEARCIGEEKEMWNFGEKYARF [C4A] | 3.13 |
| TYESRCIGEEKEMWNFGEKYARF [C4S] | 2.01 |
| TYERRCIGEEKEMWNFGEKYARF [C4R] | 2.31 |
| TYELRCIGEEKEMWNFGEKYARF [C4L] | 2.85 |
| TYEMRCIGEEKEMWNFGEKYARF [C4M] | 2.62 |
| TYEFRCIGEEKEMWNFGEKYARF [C4F] | 2.28 |
| TYENRCIGEEKEMWNFGEKYARF [C4N] | 2.31 |
| TYEYRCIGEEKEMWNFGEKYARF [C4Y] | 1.93 |
| TYECRCIGEEYEMWNFGEKYARF [K11Y] | 2.17 |
| TYECRCIGEEEEMWNFGEKYARF [K11E] | 2.54 |
| TYECRCIGEESEMWNFGEKYARF [K11S] | 1.98 |
| TYECRCIGEEDEMWNFGEKYARF [K11D] | 2.38 |
| TYECRCIGEEIEMWNFGEKYARF [K11I] | 1.3 |
| TYECRCIGEEWEMWNFGEKYARF [K11W] | 1.83 |
| TYECRCIGEECEMWNFGEKYARF [K11C] | 3.31 |
| TYECRCIGEELEMWNFGEKYARF [K11L] | 1.5 |
| TYECRCIGEEPEMWNFGEKYARF [K11P] | 2.02 |
| TYECRCIGEEAEMWNFGEKYARF [K11A] | 3.42 |
| TYECRCIGEEGEMWNFGEKYARF [K11G] | 2.62 |
| TYECRCIGEEVEMWNFGEKYARF [K11V] | 2.57 |
| TYECRCIGEEREMWNFGEKYARF [K11R] | 1.57 |
| TYECRCIGEETEMWNFGEKYARF [K11T] | 3.28 |
